Results reported in article PMC9881131, “ZNF212 promotes genomic integrity through direct interaction with TRAIP” (Nucleic Acids Research, 2023).

Molecular target: T1, recombinant HA-NEIL3 (human, UniProt Q8TAT5 1-605)
T1 construct: NEIL3, human (hNEIL3), subcloned into a pET19b-derived plasmid; The methods tell 3x FLAG (N-terminus) and 10x His (C-terminus); the results call the purified protein HA-NEIL3; Which tags stood on the protein in the assay is not clear; also called hNEIL3; source: E. coli BL21 (DE3), purified (Ni-NTA, Q column, gel filtration)
T1 sequence (looked up): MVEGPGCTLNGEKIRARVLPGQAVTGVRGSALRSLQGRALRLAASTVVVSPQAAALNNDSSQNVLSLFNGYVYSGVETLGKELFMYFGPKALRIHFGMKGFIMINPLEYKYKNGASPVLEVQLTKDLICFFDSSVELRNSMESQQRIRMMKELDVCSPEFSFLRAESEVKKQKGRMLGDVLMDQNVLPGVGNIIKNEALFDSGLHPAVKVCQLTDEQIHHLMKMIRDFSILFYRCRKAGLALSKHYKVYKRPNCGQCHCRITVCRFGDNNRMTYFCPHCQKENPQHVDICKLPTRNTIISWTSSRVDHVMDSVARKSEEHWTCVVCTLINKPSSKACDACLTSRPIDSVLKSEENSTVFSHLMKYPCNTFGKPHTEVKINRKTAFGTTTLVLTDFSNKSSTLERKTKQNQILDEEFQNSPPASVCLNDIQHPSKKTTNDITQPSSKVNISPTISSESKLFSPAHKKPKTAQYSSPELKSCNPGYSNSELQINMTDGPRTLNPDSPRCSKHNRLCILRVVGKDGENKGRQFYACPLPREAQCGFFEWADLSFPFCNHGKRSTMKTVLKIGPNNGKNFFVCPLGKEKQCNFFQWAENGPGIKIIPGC
Assay: co-IP; purified recombinant Flag-ZNF212 (or ZNF212-C) and HA-NEIL3; immunoprecipitation with increasing amounts of HA-NEIL3
Conditions: both partners purified

binding result: binds
B1: recombinant Flag-ZNF212 (natural protein)
chain: not shown
notes: ZNF212, human, 3X-Flag tagged coding region cloned in pCold TF DNA; The host strain (E. coli BL21 (DE3)) is stated for hNEIL3 only; the later purification steps are told for hNEIL3 only; also called hZNF212; source: pCold TF DNA vector, cells grown in LB broth at 15°C, purified (Ni-NTA)
